Values of other authors, collected in patent US20240293585A1, “HIGH MOLECULAR WEIGHT ZWITTERION-CONTAINING POLYMERS” (Kodiak Sciences Inc., priority 0001, published 2024).

Cimzia: Fab′ against TNFa conjugated with a 40 kDa branched polymer [reference compound]
Human half life after subcutaneous injection (human, subcutaneous): 311 h

Mircera: PEGylated form of recombinant human erythropietin [reference compound]
in vivo half life after subcutaneous injection (chronic renal disease patients, subcutaneous): approximately 140 hours

rhEPO: 30.4 kDa protein with 165 amino acids; native form of human erythropoietin with 3 N-linked chains
mean terminal half life after intravenous injection (human, intravenous): 7 h
mean terminal half life after subcutaneous injection (human, subcutaneous): 16 h
